T1: recombinant human FcγRIIb (R&D Systems #1875-CD-050) (human, UniProt P31994 46-217, limits assumed)
T1 construct: Bought; also called CD32b; recombinant, soluble, human FcγRIIb
T1 sequence (looked up): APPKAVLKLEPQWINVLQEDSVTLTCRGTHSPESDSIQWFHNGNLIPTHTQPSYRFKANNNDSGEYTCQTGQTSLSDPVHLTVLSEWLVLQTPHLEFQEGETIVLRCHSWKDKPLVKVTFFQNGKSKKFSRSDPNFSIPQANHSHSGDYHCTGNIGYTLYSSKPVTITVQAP

T2: recombinant human His-tagged FcγRIIa (R&D Systems #1330-CD-050) (human, UniProt P12318 36-218, limits assumed)
T2 construct: Bought; also called CD32a; recombinant, soluble, human FcγRIIa
T2 sequence (looked up): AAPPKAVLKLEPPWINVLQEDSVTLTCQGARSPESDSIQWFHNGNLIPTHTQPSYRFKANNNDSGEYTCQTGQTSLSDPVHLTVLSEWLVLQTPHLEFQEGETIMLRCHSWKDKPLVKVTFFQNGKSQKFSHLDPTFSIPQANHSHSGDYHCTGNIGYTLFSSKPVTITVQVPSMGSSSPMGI

B1: CHO-CNTO 860 WT (antibody, human IgG1, kappa)
heavy: not shown
light: DIQMTQSPSSLSASVGDRVTITCKASQDIRKYLNWYQQKPGKAPKLLIYYATSLADGVPSRFSGSGSGTDYTFTISSLQPEDIATYYCLQHGESPYTFGQGTKLEITRTVAAPSVFIFPPSDEQLKSGTASVVCLLNNFYPREAKVQWKVDNALQSGNSQESVTEQDSKDSTYSLSSTLTLSKADYEKHKVYACEVTHQGLSSPVTKSFNRGEC
modifications: N-linked glycan at heavy chain Asn297 (CHO-type, highly fucosylated); not carried by the letters
notes: Anti-human tissue factor human IgG1/kappa; transiently expressed in CHO cells (plasmids p4145/p4146; CHO Abs typically 95% fucosylated), purified by protein A; also called CNTO 860 WT from CHO cells; WT (CHO cell-derived); copies: 2 + 2
B2: YB2/0-CNTO 860 WT (antibody, human IgG1, kappa)
heavy: not shown
light: B1 light
modifications: Heavy chain N297 carries the YB2/0-type N-linked glycan (40-60% fucosylated); not carried by the letters.
notes: Anti-human tissue factor human IgG1/kappa; stably expressed in rat YB2/0 cells (p2401/p2402; YB2/0 Abs typically 40-60% fucosylated), purified by protein A; also called WT (YB2/0 cell-derived); WT from YB2/0 cells; copies: 2 + 2
B3: YB2/0-CNTO 860 A330I (antibody, IgG1)
heavy: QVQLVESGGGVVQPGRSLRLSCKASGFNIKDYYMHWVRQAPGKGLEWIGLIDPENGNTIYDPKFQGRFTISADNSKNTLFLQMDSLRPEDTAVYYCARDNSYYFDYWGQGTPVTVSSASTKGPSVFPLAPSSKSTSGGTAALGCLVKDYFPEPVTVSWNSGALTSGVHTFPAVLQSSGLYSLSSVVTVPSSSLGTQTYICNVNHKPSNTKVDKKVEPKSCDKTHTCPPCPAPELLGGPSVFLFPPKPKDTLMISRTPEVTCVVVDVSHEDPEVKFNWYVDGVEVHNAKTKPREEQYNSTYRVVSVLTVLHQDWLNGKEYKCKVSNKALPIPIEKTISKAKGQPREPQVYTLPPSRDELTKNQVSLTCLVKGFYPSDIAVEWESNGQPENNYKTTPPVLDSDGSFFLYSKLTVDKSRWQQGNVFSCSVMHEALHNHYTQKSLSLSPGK
light: B1 light
modifications: N-linked glycan at heavy chain Asn297 (YB2/0-type, low fucose); not carried by the letters
notes: IgG1/kappa Fc variant; stably expressed in YB2/0 cells (p4177/p2402); EU numbering; also called A330I (YB2/0 cell-derived); A330I mutant expressed in YB2/0 cells; copies: 2 + 2
B4: CHO-CNTO 860 A330Y (antibody, human IgG1, kappa)
heavy: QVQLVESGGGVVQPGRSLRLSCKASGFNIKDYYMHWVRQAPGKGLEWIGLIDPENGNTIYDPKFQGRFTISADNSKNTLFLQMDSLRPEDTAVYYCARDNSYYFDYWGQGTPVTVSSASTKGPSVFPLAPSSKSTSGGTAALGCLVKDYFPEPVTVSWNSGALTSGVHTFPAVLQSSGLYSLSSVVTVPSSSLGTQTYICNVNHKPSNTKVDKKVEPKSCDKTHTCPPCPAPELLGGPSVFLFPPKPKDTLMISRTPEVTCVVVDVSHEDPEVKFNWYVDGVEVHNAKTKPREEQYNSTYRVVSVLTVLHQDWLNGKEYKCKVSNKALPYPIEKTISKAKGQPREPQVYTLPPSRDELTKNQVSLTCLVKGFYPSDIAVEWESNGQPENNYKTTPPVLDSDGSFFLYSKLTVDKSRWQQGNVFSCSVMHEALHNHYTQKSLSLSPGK
light: B1 light
modifications: N-linked glycan at Asn297 of the heavy chain (CHO-type, highly fucosylated); not carried by the letters
notes: IgG1/kappa Fc variant; transiently expressed in CHO cells (p4183/p4146); EU numbering; also called A330Y (CHO cell-derived); copies: 2 + 2
B5: CHO-CNTO 860 I332E/A330I (antibody, human IgG1, kappa)
heavy: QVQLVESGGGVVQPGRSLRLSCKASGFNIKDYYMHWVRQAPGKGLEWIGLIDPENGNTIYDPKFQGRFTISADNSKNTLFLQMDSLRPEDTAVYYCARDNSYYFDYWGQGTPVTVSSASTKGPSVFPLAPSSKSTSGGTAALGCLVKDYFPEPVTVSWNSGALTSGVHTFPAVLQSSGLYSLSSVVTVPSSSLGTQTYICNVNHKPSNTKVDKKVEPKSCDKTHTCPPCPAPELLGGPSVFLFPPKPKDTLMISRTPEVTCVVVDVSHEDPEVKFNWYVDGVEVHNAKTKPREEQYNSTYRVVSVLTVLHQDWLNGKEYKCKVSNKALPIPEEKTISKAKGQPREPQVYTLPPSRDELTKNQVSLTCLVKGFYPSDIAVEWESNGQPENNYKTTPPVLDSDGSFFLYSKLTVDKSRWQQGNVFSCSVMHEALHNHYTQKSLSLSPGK
light: B1 light
modifications: Heavy chain N297 carries the CHO-type N-linked glycan (about 95% fucosylated); not carried by the letters.
notes: IgG1/kappa Fc variant; transiently expressed in CHO cells (p4185/p4146); EU numbering; also called A330I/I332E (CHO cell-derived); A330I/I332E variant from CHO cells; copies: 2 + 2
B6: YB2/0-CNTO 860 S239D/I332E (antibody, human IgG1, kappa)
heavy: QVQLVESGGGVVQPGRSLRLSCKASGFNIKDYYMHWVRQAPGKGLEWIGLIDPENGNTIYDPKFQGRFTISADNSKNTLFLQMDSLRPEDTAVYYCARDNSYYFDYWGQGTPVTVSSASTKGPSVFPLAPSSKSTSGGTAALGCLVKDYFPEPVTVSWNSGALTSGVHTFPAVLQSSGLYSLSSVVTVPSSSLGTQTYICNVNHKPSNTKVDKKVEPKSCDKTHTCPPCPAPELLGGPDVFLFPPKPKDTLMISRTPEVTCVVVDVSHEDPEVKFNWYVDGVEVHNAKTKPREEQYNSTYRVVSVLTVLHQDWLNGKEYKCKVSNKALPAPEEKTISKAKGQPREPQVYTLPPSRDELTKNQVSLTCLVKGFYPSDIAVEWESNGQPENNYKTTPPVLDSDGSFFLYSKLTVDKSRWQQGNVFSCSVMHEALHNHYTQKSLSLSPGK
light: B1 light
modifications: N-linked glycan at heavy chain Asn297 (YB2/0-type, low fucose); not carried by the letters
notes: IgG1/kappa Fc variant; stably expressed in YB2/0 cells (p4179/p2402); EU numbering; also called S239D/I332E (YB2/0 cell-derived); copies: 2 + 2
B7: YB2/0-CNTO 860 V264I/I332E (antibody, human IgG1, kappa)
heavy: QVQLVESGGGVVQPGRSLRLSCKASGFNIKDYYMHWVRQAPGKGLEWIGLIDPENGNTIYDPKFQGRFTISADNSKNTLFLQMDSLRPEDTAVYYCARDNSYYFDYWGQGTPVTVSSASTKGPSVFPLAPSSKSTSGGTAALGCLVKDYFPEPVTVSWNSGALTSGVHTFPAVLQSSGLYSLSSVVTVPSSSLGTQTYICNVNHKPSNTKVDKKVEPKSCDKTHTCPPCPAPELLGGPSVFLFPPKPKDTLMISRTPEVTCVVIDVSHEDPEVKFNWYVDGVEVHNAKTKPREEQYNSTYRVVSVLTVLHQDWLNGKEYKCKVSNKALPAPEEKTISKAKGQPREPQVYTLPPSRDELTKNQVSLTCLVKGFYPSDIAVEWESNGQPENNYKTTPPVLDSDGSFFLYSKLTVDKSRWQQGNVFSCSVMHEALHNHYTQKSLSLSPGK
light: B1 light
modifications: N-linked glycan at heavy chain Asn297 (YB2/0-type, low fucose); not carried by the letters
notes: IgG1/kappa Fc variant; stably expressed in YB2/0 cells (p4180/p2402); EU numbering; also called V264I/I332E (YB2/0 cell-derived); copies: 2 + 2
B8: YB2/0-CNTO 860 A330I/I332E (antibody, human IgG1, kappa)
heavy: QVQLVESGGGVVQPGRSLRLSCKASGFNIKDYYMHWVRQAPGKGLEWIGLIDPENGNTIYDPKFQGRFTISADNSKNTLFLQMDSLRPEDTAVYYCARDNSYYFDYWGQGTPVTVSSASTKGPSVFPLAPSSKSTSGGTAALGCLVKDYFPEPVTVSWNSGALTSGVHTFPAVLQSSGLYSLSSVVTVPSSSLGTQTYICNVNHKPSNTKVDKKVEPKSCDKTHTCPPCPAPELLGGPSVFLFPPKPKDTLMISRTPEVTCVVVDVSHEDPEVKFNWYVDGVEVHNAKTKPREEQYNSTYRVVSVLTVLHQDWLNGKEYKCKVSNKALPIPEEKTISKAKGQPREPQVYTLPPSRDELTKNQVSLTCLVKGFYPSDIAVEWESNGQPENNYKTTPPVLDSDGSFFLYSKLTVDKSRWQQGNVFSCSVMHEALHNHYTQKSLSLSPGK
light: B1 light
modifications: N-linked glycan at heavy chain Asn297 (YB2/0-type, low fucose); not carried by the letters
notes: IgG1/kappa Fc variant; stably expressed in YB2/0 cells (p4178/p2402); EU numbering; also called A330I/I332E (YB2/0 cell-derived); A330I/I332E from YB2/0 cells; copies: 2 + 2
B9: YB2/0-CNTO 860 A330Y (antibody, human IgG1, kappa)
heavy: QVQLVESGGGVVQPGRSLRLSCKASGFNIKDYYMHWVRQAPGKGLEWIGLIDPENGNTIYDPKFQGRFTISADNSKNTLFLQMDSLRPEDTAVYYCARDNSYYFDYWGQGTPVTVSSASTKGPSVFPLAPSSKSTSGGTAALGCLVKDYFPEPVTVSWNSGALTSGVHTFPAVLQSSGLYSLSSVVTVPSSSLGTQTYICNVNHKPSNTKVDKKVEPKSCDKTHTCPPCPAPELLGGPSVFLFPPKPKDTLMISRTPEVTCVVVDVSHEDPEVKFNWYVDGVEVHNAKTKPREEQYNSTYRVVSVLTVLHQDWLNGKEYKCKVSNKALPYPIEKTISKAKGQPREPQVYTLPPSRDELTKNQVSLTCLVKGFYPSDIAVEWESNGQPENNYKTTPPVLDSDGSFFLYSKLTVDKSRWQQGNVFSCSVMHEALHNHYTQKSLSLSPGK
light: B1 light
modifications: N-linked glycan at heavy chain Asn297 (YB2/0-type, low fucose); not carried by the letters
notes: IgG1/kappa Fc variant; stably expressed in YB2/0 cells (p4176/p2402); EU numbering; also called A330Y (YB2/0 cell-derived); copies: 2 + 2
B10: YB2/0-CNTO 860 I332E (antibody, human IgG1, kappa)
heavy: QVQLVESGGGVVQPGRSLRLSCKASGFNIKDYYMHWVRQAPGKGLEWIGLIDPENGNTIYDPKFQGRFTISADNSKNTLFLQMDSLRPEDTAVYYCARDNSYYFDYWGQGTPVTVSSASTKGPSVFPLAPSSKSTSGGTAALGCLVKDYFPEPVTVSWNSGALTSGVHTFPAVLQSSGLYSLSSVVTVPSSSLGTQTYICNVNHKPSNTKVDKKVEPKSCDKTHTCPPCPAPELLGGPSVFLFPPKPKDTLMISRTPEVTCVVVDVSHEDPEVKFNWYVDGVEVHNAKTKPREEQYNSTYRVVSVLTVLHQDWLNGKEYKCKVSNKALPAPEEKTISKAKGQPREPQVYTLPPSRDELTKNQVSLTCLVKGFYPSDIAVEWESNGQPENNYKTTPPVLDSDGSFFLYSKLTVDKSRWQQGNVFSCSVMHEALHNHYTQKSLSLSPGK
light: B1 light
modifications: Heavy chain N297 carries the YB2/0-type low-fucose N-linked glycan; not carried by the letters.
notes: IgG1/kappa Fc variant; stably expressed in YB2/0 cells (p4148/p2402), low-fucose glycan; EU numbering; also called I332E (YB2/0 cell-derived); I332E from YB2/0 cells; copies: 2 + 2
B11: CHO-CNTO 860 I332E (antibody)
heavy: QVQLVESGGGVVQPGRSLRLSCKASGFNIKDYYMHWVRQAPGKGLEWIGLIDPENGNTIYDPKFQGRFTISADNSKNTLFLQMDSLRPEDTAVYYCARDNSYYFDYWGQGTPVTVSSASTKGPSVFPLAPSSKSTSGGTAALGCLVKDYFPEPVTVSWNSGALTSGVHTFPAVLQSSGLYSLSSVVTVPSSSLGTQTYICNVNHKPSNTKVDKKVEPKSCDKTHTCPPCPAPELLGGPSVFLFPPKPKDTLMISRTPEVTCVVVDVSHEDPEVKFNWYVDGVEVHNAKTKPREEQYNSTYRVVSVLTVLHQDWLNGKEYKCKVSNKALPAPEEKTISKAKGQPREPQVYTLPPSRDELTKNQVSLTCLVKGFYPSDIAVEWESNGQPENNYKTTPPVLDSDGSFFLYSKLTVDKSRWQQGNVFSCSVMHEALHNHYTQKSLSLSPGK
light: B1 light
modifications: N-linked glycan at Asn297 of the heavy chain (CHO-type, highly fucosylated); not carried by the letters
notes: IgG1/kappa Fc variant; transiently expressed in CHO cells (p4157/p4146); also called I332E (CHO cell-derived); I332E from CHO cells; copies: 2 + 2
B12: CHO-CNTO 860 I332E/S239D (antibody, human IgG1, kappa)
heavy: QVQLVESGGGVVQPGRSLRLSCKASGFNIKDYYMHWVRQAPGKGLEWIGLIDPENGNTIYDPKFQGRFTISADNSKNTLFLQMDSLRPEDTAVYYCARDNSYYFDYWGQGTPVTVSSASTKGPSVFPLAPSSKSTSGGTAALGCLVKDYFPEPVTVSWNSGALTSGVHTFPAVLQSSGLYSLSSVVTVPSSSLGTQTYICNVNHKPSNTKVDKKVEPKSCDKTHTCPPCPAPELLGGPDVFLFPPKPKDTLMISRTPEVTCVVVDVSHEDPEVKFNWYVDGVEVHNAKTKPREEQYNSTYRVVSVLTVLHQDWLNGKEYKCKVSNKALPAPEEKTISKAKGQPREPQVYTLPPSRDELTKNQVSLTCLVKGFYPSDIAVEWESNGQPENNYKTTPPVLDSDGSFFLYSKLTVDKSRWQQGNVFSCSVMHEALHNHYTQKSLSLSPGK
light: B1 light
modifications: Heavy chain N297 carries the CHO-type N-linked glycan (about 95% fucosylated); not carried by the letters.
notes: IgG1/kappa Fc variant; transiently expressed in CHO cells (p4186/p4146); EU numbering; also called S239D/I332E (CHO cell-derived); copies: 2 + 2
B13: CHO-CNTO 860 A330I (antibody, IgG1)
heavy: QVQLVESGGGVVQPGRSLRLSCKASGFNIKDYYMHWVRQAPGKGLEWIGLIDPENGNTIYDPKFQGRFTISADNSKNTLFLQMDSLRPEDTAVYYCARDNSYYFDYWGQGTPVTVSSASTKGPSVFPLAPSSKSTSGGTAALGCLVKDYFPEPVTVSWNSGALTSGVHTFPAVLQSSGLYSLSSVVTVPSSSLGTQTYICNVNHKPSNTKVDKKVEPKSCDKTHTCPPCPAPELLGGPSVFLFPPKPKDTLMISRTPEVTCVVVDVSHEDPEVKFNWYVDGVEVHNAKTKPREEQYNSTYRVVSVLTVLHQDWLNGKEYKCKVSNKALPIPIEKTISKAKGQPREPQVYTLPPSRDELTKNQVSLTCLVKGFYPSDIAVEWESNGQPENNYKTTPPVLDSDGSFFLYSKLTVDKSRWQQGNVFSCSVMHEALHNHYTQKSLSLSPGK
light: B1 light
modifications: N-linked glycan at Asn297 of the heavy chain (CHO-type, highly fucosylated); not carried by the letters
notes: IgG1/kappa Fc variant; EU numbering; also called A330I (CHO cell-derived); copies: 2 + 2

Target: T1, recombinant human FcγRIIb (R&D Systems …)
Experiment: AlphaScreen, FcγRIIb on nickel acceptor beads
Protocol: (§1) FcγRIIa (CD32a) AlphaScreen—Nickel acceptor beads (Perkin Elmer #6760619C) were diluted 1:50 in assay buffer (PBS, pH 7.4, 4 mg/ml BSA, 0.01% Tween-20), and 27.5 μl were added to each well of a Nunc V-bottom polypropylene plate (VWR # 62409-108) (Powers G., Notebook 9006, pp. 169-175, 182-185). A 2.0 μg/ml solution of recombinant human His-tagged FcγRIIa (R&D Systems #1330-CD-050) was prepared in assay buffer and 27.5 μl added to each well of a separate Nunc V bottom polypropylene plate. Titrations of test Abs were prepared in the Nunc V bottom polypropylene plate starting at 30 μg/ml. A 2 μg/ml solution of biotinylated goat F(ab′)₂ anti-human IgG F(ab′)₂ (Jackson Immunoresearch #109-066-097) was prepared in assay buffer and 27.5 μl added to each well of another Nunc V bottom polypropylene plate. A 1:50 dilution of streptavidin donor beads (PerkinElmer # 6760002) was prepared in assay buffer and 27.5 μl added to each well of another Nunc V bottom polypropylene plate. A volume of 5 μl of each reagent was added to the corresponding quadrants of a low-volume, non-binding white 384-well plate (Corning # 3673) in the following order: acceptor beads, FcγRIIa, test Ab, biotinylated anti-human IgG F(ab′)₂, and streptavidin donor beads. The plates were incubated for 30 minutes with shaking and the O.D.s determined using an Envision plate reader.
FcγRIIb (CD32b) AlphaScreen—The assay was performed as described above for FcγRIIa except that FcγRIIa was replaced with FcγRIIb (R&D Systems #1875-CD-050).

concentration (ng/ml) required for an O.D. value of 200,000 [ng/mL] | Binder
165 | B1
120 | B2
37000 | B3
280 | B4
4500 | B5
20 | B6
60 | B7
10500 | B8
165 | B9
75 | B10
105 | B11
27 | B12
75000 | B13

Target: T3, recombinant human His-tagged FcγRI (extracellular domain, R&D Systems #1257-FC-050) (human, UniProt P12314 16-292)
T3 construct: extracellular domain; Bought; also called CD64; recombinant, soluble, human FcγRI
T3 sequence (P12314 16-292): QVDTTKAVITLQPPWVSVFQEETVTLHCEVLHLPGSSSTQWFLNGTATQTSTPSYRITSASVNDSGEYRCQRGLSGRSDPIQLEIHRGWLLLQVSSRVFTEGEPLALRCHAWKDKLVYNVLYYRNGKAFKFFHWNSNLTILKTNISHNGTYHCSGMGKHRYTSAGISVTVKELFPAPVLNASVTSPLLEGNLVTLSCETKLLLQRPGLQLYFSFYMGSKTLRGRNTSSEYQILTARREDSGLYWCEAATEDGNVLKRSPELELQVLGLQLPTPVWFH
Experiment: ELISA, His-tagged FcγRI captured on HisGrab plate
Protocol: FcγRI (CD64) ELISA —50 μl of a 1 μg/ml solution of recombinant human His-tagged FcγRI (extracellular domain, R&D Systems #1257-FC-050) in ELISA buffer (PBS, pH 7.4, 4 mg/ml BSA, 0.01% Tween-20) was added to each well of HisGrab 96 well plates (Pierce #15142) (Powers G., Notebook 9006, pp. 166-168, 180-181). The plate was incubated with shaking for 3 hours. The plates were washed 3× with 300 μl of wash buffer (PBS, 0.01% Tween-20) on a plate washer. Serial dilutions of the CNTO860 antibody Fc-variant samples were made in ELISA buffer and 50 μl per well of each titration were added in duplicate to the FcγRI-coated plates. The plates were incubated with shaking for 1 hour. The plates were washed 3× with 300 μl of wash buffer on a plate washer. 50 μl of a 1:10,000 dilution of HRP-labeled goat F(ab′)₂ anti-human IgG F(ab′)₂ (Jackson Immunoresearch # 109-036-097) in ELISA buffer was added to each well. The plates were incubated with shaking for 30 minutes. The plates were washed 3× with 300 μl of wash buffer on the plate washer. 50 μl per well TMB substrate (RDI #RDI-TMBSU-1L) was added to each well and developed for 5 minutes. The reaction was stopped by adding 100 μl 0.2 N sulfuric acid. The plates were read at OD450 on an Envision plate reader.

concentration (ng/ml) required for an O.D. value of 1.0 [ng/mL] | Binder
480 | B1
420 | B2
570 | B3
420 | B4
420 | B5
300 | B6
480 | B7
310 | B8
420 | B9
300 | B10
300 | B11
480 | B12
750 | B13

Target: T4, recombinant human His-tagged FcγRIIIa (extracellular domain made at Centocor) (human, UniProt P08637 17-208)
T4 construct: extracellular domain; also called CD16a; recombinant, soluble, human FcγRIIIa
T4 sequence (P08637 17-208): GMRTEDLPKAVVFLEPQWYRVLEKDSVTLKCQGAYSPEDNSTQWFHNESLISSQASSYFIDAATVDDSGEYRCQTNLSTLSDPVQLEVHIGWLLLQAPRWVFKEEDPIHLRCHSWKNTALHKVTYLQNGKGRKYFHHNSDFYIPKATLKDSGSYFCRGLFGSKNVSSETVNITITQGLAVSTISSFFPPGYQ
Experiment: ELISA, His-tagged FcγRIIIa captured on HisGrab plate
Protocol: FcγRIIIa (CD16a) ELISA—A human FcγRIIIa binding assay was done in ELISA format similar to the assay for FcγRI above. 50 μl of a 2 μg/ml solution of recombinant human His-tagged FcγRIIIa (extracellular domain made at Centocor) in ELISA buffer (PBS, 4 mg/ml BSA, 0.01% Tween-20) was added to each well of HisGrab 96 well plates (Pierce #15142) (Powers G., Notebook 10378, 19-23). The plate was incubated for 3 hours at room temp. The plates were blocked with 200 μl of Starting Block (Pierce #15142) for 30 min, and then washed 3× with 300 μl of wash buffer (PBS, 0.01% Tween-20) on a plate washer. Serial dilutions of the CNTO 860 test samples were made in Starting Block buffer and 50 μl per well of each titration were added in duplicate to the FcγRIIIa-coated plates. The plates were incubated for 1 hour. The plates were washed 3× with 300 μl of wash buffer on a plate washer. 50 μl of a 1:10,000 dilution of HRP-labeled goat F(ab′)2 anti-human IgG F(ab′)2 (Jackson Immunoresearch # 109-036-097) in Starting Block buffer was added to each well. The plates were incubated for 30 minutes. The plates were washed 3× with 300 μl of wash buffer on the plate washer. 50 μl per well TMB substrate (RDI #RDI-TMBSU-1L) was added to each well and developed for 3-5 minutes. The reaction was stopped by adding 100 μl […] sulfuric acid. The plates were read at OD450 on an Envision plate reader. Antibody concentration vs OD450 values were graphed for each CNTO 860 variant and the antibody concentration needed to achieve an OD450 reading of 0.14 established by interpolation within each data curve.

concentration (ng/ml) required for an O.D. value of 0.14 [ng/mL] | Binder
4500 | B1
1500 | B2
1200 | B3
3300 | B4
520 | B5
120 | B6
165 | B7
240 | B8
340 | B9
165 | B10
750 | B11
600 | B12
19000 | B13

Target: T2, recombinant human His-tagged FcγRIIa …
Experiment: AlphaScreen, His-tagged FcγRIIa on nickel acceptor beads
Protocol: as §1

concentration (ng/ml) required for a set O.D. signal [ng/mL] | Binder
97 | B1
63 | B2
450 | B3
142 | B4
900 | B5
60 | B6
90 | B7
1500 | B8
78 | B9
60 | B10
76 | B11
75 | B12
2250 | B13

Reference: US20080311034A1 (published 2008)
